Patent US20240261333A1, “NOVEL TARGETS FOR ENHANCING ANTI-TUMOR IMMUNITY” (THE BROAD INSTITUTE, INC., priority 2021, published 2024)

Legend:
[1] = target: MYH11 (human) (UniProt P35749); experiment: co-IP, IgG control, lysate of cells with N-FLAG B3GNT2; mass spectrometry
[2] = target: RPS3 (human) (UniProt P23396); experiment: as above
[3] = target: LMNA (human) (UniProt P02545); experiment: as above
[4] = target: GGCT (human) (UniProt O75223); experiment: as above
[5] = target: PARP1 (human) (UniProt P09874); experiment: as above
[6] = target: DDX5 (human) (UniProt P17844); experiment: as above
[7] = target: C1orf68 (human) (UniProt Q5T750); experiment: as above
[8] = target: FAU (human) (UniProt P62861); experiment: as above
[9] = target: HADHB (human) (UniProt P55084); experiment: as above
[10] = target: RPL4 (human) (UniProt P36578); experiment: as above
[11] = target: ATXN2 (human) (UniProt Q99700); experiment: as above
[12] = target: PRRC2C (human) (UniProt Q9Y520); experiment: co-IP with IgG control, lysate of N-FLAG B3GNT2 cells, mass spectrometry
[13] = target: TM9SF1 (human) (UniProt O15321); experiment: as above
[14] = target: SRSF6 (human) (UniProt Q13247); experiment: as above
[15] = target: CPT1A (human) (UniProt P50416); experiment: as above
[16] = target: P4HA2 (human) (UniProt O15460); experiment: as above
[17] = target: PURA (human) (UniProt Q00577); experiment: as above
[18] = target: CPSF7 (human) (UniProt Q8N684); experiment: as above
[19] = target: TTC13 (human) (UniProt Q8NBP0); experiment: as above
[20] = target: NAP1L1 (human) (UniProt P55209); experiment: as above
[21] = target: RPL7A (human) (UniProt P62424); experiment: as above
[22] = target: RPS24 (human) (UniProt P62847); experiment: as above
[23] = target: RPL17 (human) (UniProt P18621); experiment: as above
[24] = target: MMP14 (human) (UniProt P50281); experiment: as above
[25] = target: PLOD1 (human) (UniProt Q02809); experiment: as above
[26] = target: LAMC1 (human) (UniProt P11047); experiment: as above
[27] = target: PSMB5 (human) (UniProt P28074); experiment: as above
[28] = target: COPA (human) (UniProt P53621); experiment: as above
[29] = target: P0AA25.2 [thioredoxin: P0AA25]; experiment: as above
[30] = target: CLTC (human) (UniProt Q00610); experiment: as above
[31] = target: PUF60 (human) (UniProt Q9UHX1); experiment: as above
[32] = target: HBB (human) (UniProt P68871); experiment: as above
[33] = target: UniProt P01837.1; experiment: as above
[34] = target: MMS19 (human) (UniProt Q96T76); experiment: as above
[35] = target: LUC7L3 (human) (UniProt O95232); experiment: as above
[36] = target: RBM14 (human) (UniProt Q96PK6); experiment: as above
[37] = target: RUVBL2 (human) (UniProt Q9Y230); experiment: as above

Sequence of PUF60 (human) (Q9UHX1 whole entry): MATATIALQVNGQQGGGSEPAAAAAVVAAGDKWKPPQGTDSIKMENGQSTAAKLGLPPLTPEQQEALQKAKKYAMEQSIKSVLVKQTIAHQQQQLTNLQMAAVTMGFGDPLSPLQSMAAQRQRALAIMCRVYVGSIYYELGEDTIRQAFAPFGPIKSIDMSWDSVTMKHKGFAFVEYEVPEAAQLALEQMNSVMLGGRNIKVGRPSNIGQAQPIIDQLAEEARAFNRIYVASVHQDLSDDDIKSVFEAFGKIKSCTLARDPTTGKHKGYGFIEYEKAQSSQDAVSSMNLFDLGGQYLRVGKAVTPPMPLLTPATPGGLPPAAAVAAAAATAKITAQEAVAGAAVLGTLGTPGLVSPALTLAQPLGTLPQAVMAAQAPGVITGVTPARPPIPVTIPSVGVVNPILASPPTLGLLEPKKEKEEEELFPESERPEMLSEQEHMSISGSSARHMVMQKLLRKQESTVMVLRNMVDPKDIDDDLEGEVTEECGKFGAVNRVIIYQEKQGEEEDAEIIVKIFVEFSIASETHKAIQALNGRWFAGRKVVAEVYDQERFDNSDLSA
Sequence of CPT1A (human) (P50416 other isoform, or with tags, fused parts or gaps limits assumed): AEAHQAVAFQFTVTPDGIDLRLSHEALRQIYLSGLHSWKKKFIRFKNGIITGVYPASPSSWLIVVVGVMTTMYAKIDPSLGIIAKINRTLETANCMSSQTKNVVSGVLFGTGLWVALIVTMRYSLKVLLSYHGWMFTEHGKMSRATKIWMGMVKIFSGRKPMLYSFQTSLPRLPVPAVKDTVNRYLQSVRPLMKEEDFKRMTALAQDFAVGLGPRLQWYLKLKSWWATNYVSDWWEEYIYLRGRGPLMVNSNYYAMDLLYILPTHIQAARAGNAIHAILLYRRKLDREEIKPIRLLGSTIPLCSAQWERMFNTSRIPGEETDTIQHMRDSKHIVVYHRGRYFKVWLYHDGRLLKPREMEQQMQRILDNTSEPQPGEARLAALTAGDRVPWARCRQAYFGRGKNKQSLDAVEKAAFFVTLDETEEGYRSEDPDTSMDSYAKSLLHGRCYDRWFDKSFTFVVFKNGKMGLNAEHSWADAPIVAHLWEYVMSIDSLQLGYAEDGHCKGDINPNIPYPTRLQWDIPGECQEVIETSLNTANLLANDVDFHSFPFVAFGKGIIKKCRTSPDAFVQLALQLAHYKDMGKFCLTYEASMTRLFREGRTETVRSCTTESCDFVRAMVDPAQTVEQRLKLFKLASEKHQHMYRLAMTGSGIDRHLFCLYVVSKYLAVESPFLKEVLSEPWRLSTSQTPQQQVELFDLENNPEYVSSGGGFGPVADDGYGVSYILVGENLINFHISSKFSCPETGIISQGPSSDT
Sequence of SRSF6 (human) (Q13247 whole entry): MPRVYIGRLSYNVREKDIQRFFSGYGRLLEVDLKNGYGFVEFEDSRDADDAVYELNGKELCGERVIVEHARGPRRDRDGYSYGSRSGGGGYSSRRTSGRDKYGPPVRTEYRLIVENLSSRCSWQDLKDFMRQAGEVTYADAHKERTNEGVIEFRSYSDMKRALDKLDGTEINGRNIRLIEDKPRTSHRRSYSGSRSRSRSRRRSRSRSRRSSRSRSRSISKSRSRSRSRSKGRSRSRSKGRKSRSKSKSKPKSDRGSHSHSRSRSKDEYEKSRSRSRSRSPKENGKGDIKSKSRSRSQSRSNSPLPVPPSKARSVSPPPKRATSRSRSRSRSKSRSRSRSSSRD
Sequence of LAMC1 (human) (P11047 34-1609 limits assumed): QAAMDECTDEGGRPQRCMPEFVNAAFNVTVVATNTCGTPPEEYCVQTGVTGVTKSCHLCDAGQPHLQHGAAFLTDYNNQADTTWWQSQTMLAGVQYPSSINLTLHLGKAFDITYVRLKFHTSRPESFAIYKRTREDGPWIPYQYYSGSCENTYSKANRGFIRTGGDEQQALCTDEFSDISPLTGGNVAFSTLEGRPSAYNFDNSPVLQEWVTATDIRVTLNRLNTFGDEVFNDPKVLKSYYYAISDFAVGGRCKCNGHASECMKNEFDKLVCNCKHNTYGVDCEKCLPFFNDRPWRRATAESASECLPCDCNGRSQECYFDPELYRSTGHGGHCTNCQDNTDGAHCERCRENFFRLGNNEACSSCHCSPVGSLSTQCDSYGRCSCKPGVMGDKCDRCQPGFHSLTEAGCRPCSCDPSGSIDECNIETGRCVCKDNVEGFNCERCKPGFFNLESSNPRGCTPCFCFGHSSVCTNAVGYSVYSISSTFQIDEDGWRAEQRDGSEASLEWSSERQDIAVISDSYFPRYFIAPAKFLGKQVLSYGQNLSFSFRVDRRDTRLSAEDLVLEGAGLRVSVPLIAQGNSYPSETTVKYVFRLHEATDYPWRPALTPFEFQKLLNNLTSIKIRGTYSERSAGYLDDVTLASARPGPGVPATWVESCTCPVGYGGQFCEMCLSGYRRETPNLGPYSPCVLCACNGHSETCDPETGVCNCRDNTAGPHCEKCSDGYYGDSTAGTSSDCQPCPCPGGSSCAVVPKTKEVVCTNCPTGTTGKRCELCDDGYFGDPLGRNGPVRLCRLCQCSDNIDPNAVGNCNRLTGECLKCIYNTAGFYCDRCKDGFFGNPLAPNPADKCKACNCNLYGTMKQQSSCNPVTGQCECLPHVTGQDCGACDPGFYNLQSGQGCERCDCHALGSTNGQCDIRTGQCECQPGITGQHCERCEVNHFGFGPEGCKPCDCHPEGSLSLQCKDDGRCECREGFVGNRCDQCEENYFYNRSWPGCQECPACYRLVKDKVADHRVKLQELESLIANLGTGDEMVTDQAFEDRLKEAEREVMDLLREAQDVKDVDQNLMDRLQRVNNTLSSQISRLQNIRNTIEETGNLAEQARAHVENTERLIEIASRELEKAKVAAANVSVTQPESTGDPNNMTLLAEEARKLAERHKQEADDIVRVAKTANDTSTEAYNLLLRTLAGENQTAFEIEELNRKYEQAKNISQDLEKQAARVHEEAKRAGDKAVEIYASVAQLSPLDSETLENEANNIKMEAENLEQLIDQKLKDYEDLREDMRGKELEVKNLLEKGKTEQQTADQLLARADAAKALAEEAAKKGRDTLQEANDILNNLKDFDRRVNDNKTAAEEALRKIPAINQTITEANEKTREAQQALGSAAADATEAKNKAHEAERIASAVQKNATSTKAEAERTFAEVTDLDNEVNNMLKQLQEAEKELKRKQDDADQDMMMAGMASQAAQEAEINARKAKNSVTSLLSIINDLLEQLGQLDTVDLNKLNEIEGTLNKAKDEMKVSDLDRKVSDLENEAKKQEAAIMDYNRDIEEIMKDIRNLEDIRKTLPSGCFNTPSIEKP
Sequence of C1orf68 (human) (Q5T750 whole entry): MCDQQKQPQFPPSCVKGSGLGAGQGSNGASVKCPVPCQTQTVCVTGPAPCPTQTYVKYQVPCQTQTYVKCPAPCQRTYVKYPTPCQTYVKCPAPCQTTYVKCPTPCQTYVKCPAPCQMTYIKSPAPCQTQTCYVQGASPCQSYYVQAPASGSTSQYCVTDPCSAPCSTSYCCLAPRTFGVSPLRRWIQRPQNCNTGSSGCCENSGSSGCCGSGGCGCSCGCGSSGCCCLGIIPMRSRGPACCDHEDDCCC
Sequence of ATXN2 (human) (Q99700 whole entry): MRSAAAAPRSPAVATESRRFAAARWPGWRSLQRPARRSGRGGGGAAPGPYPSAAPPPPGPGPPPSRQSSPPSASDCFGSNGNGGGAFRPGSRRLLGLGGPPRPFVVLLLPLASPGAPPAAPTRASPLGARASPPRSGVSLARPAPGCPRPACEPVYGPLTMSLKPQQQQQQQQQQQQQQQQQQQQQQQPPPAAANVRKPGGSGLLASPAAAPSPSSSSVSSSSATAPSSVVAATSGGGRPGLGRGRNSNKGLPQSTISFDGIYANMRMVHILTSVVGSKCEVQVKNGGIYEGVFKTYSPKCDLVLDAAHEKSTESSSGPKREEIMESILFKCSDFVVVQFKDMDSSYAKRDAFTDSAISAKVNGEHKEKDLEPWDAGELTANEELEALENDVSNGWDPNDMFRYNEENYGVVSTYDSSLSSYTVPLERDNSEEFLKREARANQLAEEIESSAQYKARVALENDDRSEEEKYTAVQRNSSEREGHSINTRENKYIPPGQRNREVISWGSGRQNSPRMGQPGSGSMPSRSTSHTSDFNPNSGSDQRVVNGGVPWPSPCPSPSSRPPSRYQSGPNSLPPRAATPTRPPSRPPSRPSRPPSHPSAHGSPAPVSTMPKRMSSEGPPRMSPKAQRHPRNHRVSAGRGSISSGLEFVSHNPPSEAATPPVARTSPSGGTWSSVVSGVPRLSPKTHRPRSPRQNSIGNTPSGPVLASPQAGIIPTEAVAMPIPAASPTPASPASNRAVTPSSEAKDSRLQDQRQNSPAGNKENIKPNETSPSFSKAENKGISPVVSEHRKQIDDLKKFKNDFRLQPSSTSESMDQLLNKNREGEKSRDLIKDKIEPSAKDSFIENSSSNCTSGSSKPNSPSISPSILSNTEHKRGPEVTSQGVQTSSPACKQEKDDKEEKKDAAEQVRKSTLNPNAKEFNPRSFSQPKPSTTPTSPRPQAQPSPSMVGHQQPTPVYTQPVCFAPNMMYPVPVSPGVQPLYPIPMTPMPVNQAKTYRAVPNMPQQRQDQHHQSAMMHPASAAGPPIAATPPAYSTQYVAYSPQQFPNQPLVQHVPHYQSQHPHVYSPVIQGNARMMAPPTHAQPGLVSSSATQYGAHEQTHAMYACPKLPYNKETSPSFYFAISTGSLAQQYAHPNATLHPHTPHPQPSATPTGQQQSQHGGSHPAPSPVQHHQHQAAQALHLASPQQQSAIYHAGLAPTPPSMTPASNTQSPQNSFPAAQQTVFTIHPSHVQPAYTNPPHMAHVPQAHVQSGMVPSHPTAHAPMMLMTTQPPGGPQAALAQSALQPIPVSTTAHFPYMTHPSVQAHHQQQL
Sequence of PSMB5 (human) (P28074 60-263 limits assumed): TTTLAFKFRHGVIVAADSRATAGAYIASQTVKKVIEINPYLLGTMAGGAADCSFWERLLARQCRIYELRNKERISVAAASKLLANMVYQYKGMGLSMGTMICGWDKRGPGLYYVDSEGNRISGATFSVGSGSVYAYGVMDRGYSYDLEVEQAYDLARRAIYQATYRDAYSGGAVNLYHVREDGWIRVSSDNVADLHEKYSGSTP

Substance: IgG control (Millipore Sigma 12-371) (antibody)
- co-IP mass spectrometry count [1]: 3
- co-IP mass spectrometry count [2]: 13
- co-IP mass spectrometry count [3]: 11
- co-IP mass spectrometry count [4]: 0
- co-IP mass spectrometry count [5]: 0
- co-IP mass spectrometry count [6]: 18
- co-IP mass spectrometry count [7]: 0
- co-IP mass spectrometry count [8]: 6
- co-IP mass spectrometry count [9]: 0
- co-IP mass spectrometry count [10]: 11
- co-IP mass spectrometry count [11]: 3
- co-IP/MS count, N-term IgG [12]: 11
- co-IP/MS count, N-term IgG [13]: 0
- co-IP/MS count, N-term IgG [14]: 3
- co-IP/MS count, N-term IgG [15]: 0
- co-IP/MS count, N-term IgG [16]: 0
- co-IP/MS count, N-term IgG [17]: 2
- co-IP/MS count, N-term IgG [18]: 8
- co-IP/MS count, N-term IgG [19]: 0
- co-IP/MS count, N-term IgG [20]: 0
- co-IP/MS count, N-term IgG [21]: 4
- co-IP/MS count, N-term IgG [22]: 4
- co-IP/MS count, N-term IgG [23]: 0
- co-IP/MS count, N-term IgG [24]: 0
- co-IP/MS count, N-term IgG [25]: 0
- co-IP/MS count, N-term IgG [26]: 0
- co-IP/MS count, N-term IgG [27]: 0
- co-IP/MS count, N-term IgG [28]: 0
- co-IP/MS count, N-term IgG [29]: 3
- co-IP/MS count, N-term IgG [30]: 6
- co-IP/MS count, N-term IgG [31]: 5
- co-IP/MS count, N-term IgG [32]: 0
- co-IP/MS count, N-term IgG [33]: 87
- co-IP/MS count, N-term IgG [34]: 0
- co-IP/MS count, N-term IgG [35]: 2
- co-IP/MS count, N-term IgG [36]: 4
- co-IP/MS count, N-term IgG [37]: 0
